US20250313627A1 (FUSE BIOTHERAPEUTICS, published 2025)

Key:
[1] = molecular target: T1, cynomolgus (NHP) CD3 on cynomolgus pan-T cells (cynomolgus); test: flow cytometry on cynomolgus pan-T cells
T1 construct: whole, on cells; also called cynomolgus CD3
Procedure: (§1) The CD3-specific Fab binding arm is presumed responsible for the observed binding. A Hen Egg Lysozyme (HEL)-specific antibody was used as the negative isotype control. Binding was measured via flow cytometry at various concentrations of test articles using a fluorescently labeled secondary antibody specific for the Fc domain of IgG1. The apparent affinity calculated for each test subject based on the data is shown under each graph. […] Binding to mouse CD3 was not tested because the anti-CD3 clone, 1F3-3, incorporated into the TCE is a humanized variant of clone SP34, which was derived in mouse and is well described as not binding mouse CD3.
(§2) Adherent target cells were collected by brief TrypLE treatment while suspension cells were directly collected. Collected cells were washed once with PBS by centrifugation at 500×g for 5 minutes at room temperature and added to V-bottom 96-well plate (200,000-300,000 cells per well). To prepared Live/Dead fixable red, one vial of powder was dissolved into 50 uL of DMSO to make stock solution and then diluted 1 uL of stock Live/Dead fixable red in 1 mL of PBS to prepare the working solution. 100 uL of Live/Dead fixable red working buffer was then added to the cell in the V-bottom 96-well plate (200,000-300,000 cells per well) and incubated for 15 minutes at room temperature. […] The samples were then analyzed on Cytek flow cytometer.

[2] = molecular target: T2, mouse ROR1 on mouse 4T1 cells (mouse, UniProt Q9Z139 30-937); test: flow cytometry on 4T1 cells expressing mouse ROR1
T2 construct: whole, on cells

[3] = molecular target: T3, human ROR1 (Receptor Tyrosine Kinase-Like Orphan Receptor 1) on the cell surface (human, UniProt Q01973 30-937); test: flow cytometry on MDA-MB-231 variants, low ROR1 density; low cell surface density of ROR1
T3 construct: whole, on cells; engineered into B16-F10 (high density) and LS174T (low density) cells; also called B16-F10-ROR1-H; LS174T-ROR1-L
Procedure: (§3) Binding of 2A11 (black line), 5A1 (dark grey line) and VHH8 (medium grey line) were tested in TCE format 12A. The commercial ROR1 specific Ab reported to bind the ROR1-Ig domain 2A2 (light grey line), served as the positive control and anti-HEL (dotted black line) served as the negative control. To better visualize binding of each test article to the three cells lines, we plotted MFI on the y-axis for each test article for HEK-293 cells (negative control; FIG. 4I), HEK-293 cells transfected with full length human ROR1 (FIG. 4J) and HEK-293 cells transfected with the ROR1 Ig domain linked to the cell surface via the GPI linker from CD59 (FIG. 4K).
as §2

[4] = molecular target: T4, recombinant His tagged human ROR1 (human, UniProt Q01973 30-403, limits assumed); test: BLI (Octet), FUSE protein loaded on the biosensor, His tagged ROR1 in solution
T4 construct: Analyte in the BLI assay; also called Human ROR1-His; recombinant ROR1
Procedure: (§4) As shown in FIGS. 5A-5D, the binding affinities (KD) of TCEs for ROR1 were assessed. We examined the magnitude by which several TCEs and mutants thereof bind to recombinant ROR1. Kinetic binding graphs were generated via Bio-Layer Interferometry (BLI) using an Octet system. For each TCE, the biosensor tips were coated with FUSE proteins at 15 μg/ml and probed with either recombinant His tagged ROR1 at concentrations ranging from 100 pM to 10 μM. […] The binding affinity (KD), on rate (k-on) and off rate (k-dis), are summarized for ROR1 in FIG. 5D.
(§5) Antibodies were prepared in 1×PBS with 0.02% Tween-20 with the final concentration of 15 ug/ml. Human ROR1-His or CD3e-His protein were also prepared, and serial diluted (4-fold dilution ranging from 400 nM to 0.098 nM) in 1×PBS with 0.02% Tween-20. The biosensors were pre-moistened in 200 uL of 1×PBS with 0.02% Tween-20 for 10 minutes. Meanwhile, Octet BLI system (ForteBio) was prewarmed for 30 minutes and the flow rate was set to 1000 rpm. The biosensors (Anti-hIgG Fc Capture biosensor) were soaked in 250 uL of 1×PBS with 0.02% Tween-20 for 60 seconds at 30° C. to get an initial baseline reading. After the 60-second baseline reading, the biosensors were exposed to testing antibody for 300 seconds at 30° C. for the association between antibody and the biosensors (coupling antibody with biosensor). The biosensors with antibody were then exposed to human ROR1 or CD3e in 250 uL of 1×PBS with 0.02% Tween-20 at 30° C. for 300 seconds for the association reaction between antibody and human ROR1 or CD3e (association curve). After 300-second association reaction between antibody and antigen, the biosensors with antibody and antigen were then exposed to 250 uL of 1×PBS with 0.02% Tween-20 at 30° C. for 300 seconds for the dissociation reaction between antibody and […]. The binding affinity was calculated by the built-in data fitting algorithm.

[5] = molecular target: T3, human ROR1 (Receptor Tyrosine …); test: flow cytometry on MDA-MB-231 variants, high ROR1 density; high cell surface density of ROR1
Procedure: as §3, §2

[6] = molecular target: T4, recombinant His tagged human ROR1; test: BLI (Octet), FUSE protein loaded on the biosensor, His tagged ROR1 in solution; column 'kdis(1/s)'
Procedure: as §4, §5

[7] = molecular target: T3, human ROR1 (Receptor Tyrosine …); test: flow cytometry on MDA-MB-231 ROR1 low cells (about 17,000 ROR1 per cell), secondary antibody to the IgG1 Fc
Procedure: as §3
as §2, with “temperature. After the 15-minute incubation, the cells were washed twice with PBS by centrifugation at 500 g for 5 minutes at room temperature. The cells were then cultured with antibodies at different concentrations in 100 uL of Biolegend staining buffer at 4° C. for 45 minutes. After the 45-minute incubation with primary antibody, the cells were washed with PBS by centrifugation at 500 g for 5 minutes at room temperature. The cells were then cultured with PE-Cy7-conjugated mouse-anti-human IgG secondary antibody in Biolegend staining buffer at 4° C. for 45 minutes.” for “temperature.”

[8] = molecular target: T3, human ROR1 (Receptor Tyrosine …); test: flow cytometry on MDA-MB-231 ROR1 high cells (about 500,000 ROR1 per cell), secondary antibody to the IgG1 Fc
Procedure: as §3
as §2, with “temperature. After the 15-minute incubation, the cells were washed twice with PBS by centrifugation at 500 g for 5 minutes at room temperature. The cells were then cultured with antibodies at different concentrations in 100 uL of Biolegend staining buffer at 4° C. for 45 minutes. After the 45-minute incubation with primary antibody, the cells were washed with PBS by centrifugation at 500 g for 5 minutes at room temperature. The cells were then cultured with PE-Cy7-conjugated mouse-anti-human IgG secondary antibody in Biolegend staining buffer at 4° C. for 45 minutes.” for “temperature.”

human CD3 on T cells [9] = molecular target: T5, human CD3 on T cells (human, UniProt P07766 23-207; P09693 23-182; P04234 22-171; P20963 22-164); test: flow cytometry on Jurkat T cells, fluorescent secondary antibody to the IgG1 Fc; table row 'Binding EC50 (Kd)'
T5 construct: whole, on cells; also called human CD3 on Jurkat T cells; human CD3 on T cells isolated from human PBMC
Procedure: as §1, §2

[10] = molecular target: T3, human ROR1 (Receptor Tyrosine …); test: flow cytometry on MDA-MB-231 ROR1 normal cells (about 35,000 ROR1 per cell), secondary antibody to the IgG1 Fc
Procedure: as §3
as §2, with “temperature. After the 15-minute incubation, the cells were washed twice with PBS by centrifugation at 500 g for 5 minutes at room temperature. The cells were then cultured with antibodies at different concentrations in 100 uL of Biolegend staining buffer at 4° C. for 45 minutes. After the 45-minute incubation with primary antibody, the cells were washed with PBS by centrifugation at 500 g for 5 minutes at room temperature. The cells were then cultured with PE-Cy7-conjugated mouse-anti-human IgG secondary antibody in Biolegend staining buffer at 4° C. for 45 minutes.” for “temperature.”

[11] = molecular target: T3, human ROR1 (Receptor Tyrosine …); test: flow cytometry on MDA-MB-231 ROR1 super high cells (about 2,000,000 ROR1 per cell), secondary antibody to the IgG1 Fc
Procedure: as §3
as §2, with “temperature. After the 15-minute incubation, the cells were washed twice with PBS by centrifugation at 500 g for 5 minutes at room temperature. The cells were then cultured with antibodies at different concentrations in 100 uL of Biolegend staining buffer at 4° C. for 45 minutes. After the 45-minute incubation with primary antibody, the cells were washed with PBS by centrifugation at 500 g for 5 minutes at room temperature. The cells were then cultured with PE-Cy7-conjugated mouse-anti-human IgG secondary antibody in Biolegend staining buffer at 4° C. for 45 minutes.” for “temperature.”

[12] = molecular target: T1, cynomolgus (NHP) CD3 on cynomolgus …; test: flow cytometry on cynomolgus pan T cells, fluorescent secondary antibody to the IgG1 Fc; table row 'Binding EC50 (Kd)'
Procedure: as §1, §2

human CD3 on T cells [13] = molecular target: T5, human CD3 on T cells; test: flow cytometry on human pan T cells (T cells isolated from human PBMC), fluorescent secondary antibody to the IgG1 Fc; table row 'Binding EC50 (Kd)'
Procedure: as §1, §2

T5 sequence (P07766 23-207, chain 1 of 4): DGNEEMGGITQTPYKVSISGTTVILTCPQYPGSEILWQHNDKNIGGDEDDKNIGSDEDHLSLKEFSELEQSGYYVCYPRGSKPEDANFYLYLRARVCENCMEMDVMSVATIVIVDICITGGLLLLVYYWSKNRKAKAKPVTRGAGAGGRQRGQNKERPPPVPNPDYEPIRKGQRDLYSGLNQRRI
T5 sequence (P09693 23-182, chain 2 of 4): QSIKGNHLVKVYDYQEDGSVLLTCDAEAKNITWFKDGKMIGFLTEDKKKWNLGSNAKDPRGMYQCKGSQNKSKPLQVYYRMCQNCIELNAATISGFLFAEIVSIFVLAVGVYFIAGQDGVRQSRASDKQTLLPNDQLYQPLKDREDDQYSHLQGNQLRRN
T5 sequence (P04234 22-171, chain 3 of 4): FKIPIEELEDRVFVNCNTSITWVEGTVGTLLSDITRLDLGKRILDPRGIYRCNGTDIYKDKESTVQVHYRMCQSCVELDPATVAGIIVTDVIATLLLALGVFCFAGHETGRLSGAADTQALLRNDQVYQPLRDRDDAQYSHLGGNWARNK
T5 sequence (P20963 22-164, chain 4 of 4): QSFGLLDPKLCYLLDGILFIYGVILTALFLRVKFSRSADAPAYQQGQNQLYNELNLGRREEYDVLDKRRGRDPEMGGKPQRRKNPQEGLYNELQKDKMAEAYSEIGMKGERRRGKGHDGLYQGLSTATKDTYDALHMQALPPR
T3 sequence (Q01973 30-937): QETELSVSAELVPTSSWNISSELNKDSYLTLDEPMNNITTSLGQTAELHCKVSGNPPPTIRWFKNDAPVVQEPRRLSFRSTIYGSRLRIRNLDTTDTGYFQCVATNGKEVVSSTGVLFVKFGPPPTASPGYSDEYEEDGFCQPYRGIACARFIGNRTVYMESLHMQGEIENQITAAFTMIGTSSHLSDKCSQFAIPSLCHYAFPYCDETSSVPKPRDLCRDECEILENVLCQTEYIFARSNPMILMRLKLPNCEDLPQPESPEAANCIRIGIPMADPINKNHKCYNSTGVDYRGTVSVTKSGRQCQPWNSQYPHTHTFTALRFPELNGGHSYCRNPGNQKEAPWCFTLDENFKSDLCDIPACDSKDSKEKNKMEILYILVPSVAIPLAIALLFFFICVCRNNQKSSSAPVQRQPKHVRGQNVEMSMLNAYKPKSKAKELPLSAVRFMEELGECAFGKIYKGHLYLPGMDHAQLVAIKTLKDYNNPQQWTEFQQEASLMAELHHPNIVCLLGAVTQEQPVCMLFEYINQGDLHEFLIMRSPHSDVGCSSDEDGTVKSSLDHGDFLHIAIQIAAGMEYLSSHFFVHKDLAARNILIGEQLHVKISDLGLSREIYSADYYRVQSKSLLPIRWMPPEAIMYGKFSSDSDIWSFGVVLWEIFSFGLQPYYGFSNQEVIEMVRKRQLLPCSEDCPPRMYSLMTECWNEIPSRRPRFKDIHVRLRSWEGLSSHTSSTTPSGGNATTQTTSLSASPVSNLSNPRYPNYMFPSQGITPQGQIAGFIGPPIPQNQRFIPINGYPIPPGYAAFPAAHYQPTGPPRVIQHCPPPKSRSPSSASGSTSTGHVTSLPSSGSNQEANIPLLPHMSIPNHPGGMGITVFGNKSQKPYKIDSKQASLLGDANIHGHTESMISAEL
T4 sequence (Q01973 30-403 limits assumed): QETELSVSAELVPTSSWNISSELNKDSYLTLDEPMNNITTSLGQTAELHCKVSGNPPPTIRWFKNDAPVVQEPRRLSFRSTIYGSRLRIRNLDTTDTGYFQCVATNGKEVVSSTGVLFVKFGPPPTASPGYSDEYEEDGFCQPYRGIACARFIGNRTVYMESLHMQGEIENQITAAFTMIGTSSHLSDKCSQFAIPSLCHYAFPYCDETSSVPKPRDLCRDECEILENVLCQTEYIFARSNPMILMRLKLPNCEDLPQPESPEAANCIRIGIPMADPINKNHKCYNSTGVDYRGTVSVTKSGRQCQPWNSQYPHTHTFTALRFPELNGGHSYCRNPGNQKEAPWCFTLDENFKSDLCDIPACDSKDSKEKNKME
T2 sequence (Q9Z139 30-937): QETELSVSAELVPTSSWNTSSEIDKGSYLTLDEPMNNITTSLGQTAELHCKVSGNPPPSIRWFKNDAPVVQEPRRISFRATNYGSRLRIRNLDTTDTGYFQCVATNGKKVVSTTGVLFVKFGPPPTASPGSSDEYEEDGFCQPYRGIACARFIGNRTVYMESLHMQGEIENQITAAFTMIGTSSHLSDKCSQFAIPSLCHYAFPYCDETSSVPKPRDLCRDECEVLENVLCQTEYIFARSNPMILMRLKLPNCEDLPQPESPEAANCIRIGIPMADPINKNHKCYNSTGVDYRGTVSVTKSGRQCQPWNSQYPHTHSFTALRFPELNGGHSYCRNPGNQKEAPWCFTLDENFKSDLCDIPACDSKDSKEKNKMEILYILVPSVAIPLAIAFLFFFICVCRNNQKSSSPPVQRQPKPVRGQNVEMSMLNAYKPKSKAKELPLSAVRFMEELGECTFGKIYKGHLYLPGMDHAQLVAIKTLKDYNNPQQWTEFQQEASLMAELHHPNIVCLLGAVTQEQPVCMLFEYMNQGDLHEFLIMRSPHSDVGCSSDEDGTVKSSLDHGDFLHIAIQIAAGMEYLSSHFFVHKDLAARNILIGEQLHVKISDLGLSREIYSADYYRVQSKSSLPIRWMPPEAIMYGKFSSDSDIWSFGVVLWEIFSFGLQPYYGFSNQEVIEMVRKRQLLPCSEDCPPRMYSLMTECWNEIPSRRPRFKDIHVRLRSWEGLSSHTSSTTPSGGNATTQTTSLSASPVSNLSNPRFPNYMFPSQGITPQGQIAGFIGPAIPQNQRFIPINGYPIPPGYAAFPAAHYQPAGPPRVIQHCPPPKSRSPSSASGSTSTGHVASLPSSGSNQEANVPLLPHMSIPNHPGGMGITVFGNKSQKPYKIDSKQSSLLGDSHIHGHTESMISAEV

Binder	fold difference in apparent binding affinity, cynomolgus against human CD3 [1]	binding result [2]	EC50 [3]	Kd [4]	kon [4]	EC50 [5]	koff [6]	EC50 [7]	EC50 [8]	EC50 (human CD3 on T cells [9])	EC50 [10]	EC50 [11]	EC50 [12]	EC50 (human CD3 on T cells [13])
FUSE-393 (bispecific antibody, human IgG1, lambda, L234A L235A, Hole chain: 5A1-linker-5A1-Fc; knob chain: anti-CD3 Fab heavy chain-Fc; anti-CD3 light chain; also called format 11A incorporating the 5A1 ROR1-specific VHH) QVQLQESGGGSVQAGGSLKLSCTASGYTNRLKCMGWFRQAPGKEREEIATISTGTGNTYYADSVKGRFTFSQDKVKNTVYLQMNTLKPDDTGMYYCAADVRPDGTTCHYNSGGQGTQVTVSSGGGGSGGGGSGGGGSQVQLQESGGGSVQAGGSLKLSCTASGYTNRLKCMGWFRQAPGKEREEIATISTGTGNTYYADSVKGRFTFSQDKVKNTVYLQMNTLKPDDTGMYYCAADVRPDGTTCHYNSGGQGTQVTVSSEPKSSDKTHTCPPCPAPEAAGGPSVFLFPPKPKDTLMISRTPEVTCVVVDVSHEDPEVKFNWYVDGVEVHNAKTKPREEQYNSTYRVVSVLTVLHQDWLNGKEYKCKVSNKALPAPIEKTISKAKGQPREPQVYTLPPSREEMTKNQVSLSCAVKGFYPSDIAVEWESNGQPENNYKTTPPVLDSDGSFFLVSKLTVDKSRWQQGNVFSCSVMHEALHNRFTQKSLSLSPGK heavy: EVQLVESGGGLVQPGGSLRLSCAASGFTFSTYAMNWVRQAPGKGLEWVARIRSKYNNYATYYADSVKDRFTISRDDSKNTLYLQMNSLRAEDTAVYYCARHGNFGNSYVSWFAYWGQGTMVTVSSASTKGPSVFPLAPSSKSTSGGTAALGCLVKDYFPEPVTVSWNSGALTSGVHTFPAVLQSSGLYSLSSVVTVPSSSLGTQTYICNVNHKPSNTKVDKKVEPKSCDKTHTCPPCPAPEAAGGPSVFLFPPKPKDTLMISRTPEVTCVVVDVSHEDPEVKFNWYVDGVEVHNAKTKPREEQYNSTYRVVSVLTVLHQDWLNGKEYKCKVSNKALPAPIEKTISKAKGQPREPQVYTLPPSREEMTKNQVSLWCLVKGFYPSDIAVEWESNGQPENNYKTTPPVLDSDGSFFLYSKLTVDKSRWQQGNVFSCSVMHEALHNHYTQKSLSLSPGK light: QAVVTQEPSLTVSPGGTVTLTCRSSTGAVTTSNYANWVQQKPGQAPRGLIGGTNKRAPGTPARFSGSLLGGKAALTLSGVQPEDEAEYYCALWYSNLWVFGGGTKLTVLGQPKAAPSVTLFPPSSEELQANKATLVCLISDFYPGAVTVAWKADSSPVKAGVETTTPSKQSNNKYAASSYLSLTPEQWKSHRSYSCQVTHEGSTVEKTVAPTECS	< 2 fold	no binding	~300 nM	21.8 nM	21500 M⁻¹ s⁻¹	~15 nM	0.000468 s⁻¹	288 nM	26.5 nM	3.34 nM	281 nM	16.3 nM	3.04 nM	4.45 nM
FUSE-394 (bispecific antibody, human IgG1, lambda, L234A L235A, Hole chain: 5A1-Fc; knob chain: anti-CD3 Fab heavy chain-Fc; light chain: anti-CD3 light chain-linker-5A1; also called format 13cA incorporating the 5A1 ROR1-specific VHH) QVQLQESGGGSVQAGGSLKLSCTASGYTNRLKCMGWFRQAPGKEREEIATISTGTGNTYYADSVKGRFTFSQDKVKNTVYLQMNTLKPDDTGMYYCAADVRPDGTTCHYNSGGQGTQVTVSSEPKSSDKTHTCPPCPAPEAAGGPSVFLFPPKPKDTLMISRTPEVTCVVVDVSHEDPEVKFNWYVDGVEVHNAKTKPREEQYNSTYRVVSVLTVLHQDWLNGKEYKCKVSNKALPAPIEKTISKAKGQPREPQVYTLPPSREEMTKNQVSLSCAVKGFYPSDIAVEWESNGQPENNYKTTPPVLDSDGSFFLVSKLTVDKSRWQQGNVFSCSVMHEALHNRFTQKSLSLSPGK heavy: EVQLVESGGGLVQPGGSLRLSCAASGFTFSTYAMNWVRQAPGKGLEWVARIRSKYNNYATYYADSVKDRFTISRDDSKNTLYLQMNSLRAEDTAVYYCARHGNFGNSYVSWFAYWGQGTMVTVSSASTKGPSVFPLAPSSKSTSGGTAALGCLVKDYFPEPVTVSWNSGALTSGVHTFPAVLQSSGLYSLSSVVTVPSSSLGTQTYICNVNHKPSNTKVDKKVEPKSCDKTHTCPPCPAPEAAGGPSVFLFPPKPKDTLMISRTPEVTCVVVDVSHEDPEVKFNWYVDGVEVHNAKTKPREEQYNSTYRVVSVLTVLHQDWLNGKEYKCKVSNKALPAPIEKTISKAKGQPREPQVYTLPPSREEMTKNQVSLWCLVKGFYPSDIAVEWESNGQPENNYKTTPPVLDSDGSFFLYSKLTVDKSRWQQGNVFSCSVMHEALHNHYTQKSLSLSPGK light: QAVVTQEPSLTVSPGGTVTLTCRSSTGAVTTSNYANWVQQKPGQAPRGLIGGTNKRAPGTPARFSGSLLGGKAALTLSGVQPEDEAEYYCALWYSNLWVFGGGTKLTVLGQPKAAPSVTLFPPSSEELQANKATLVCLISDFYPGAVTVAWKADSSPVKAGVETTTPSKQSNNKYAASSYLSLTPEQWKSHRSYSCQVTHEGSTVEKTVAPTECSGGGGSGGGGSGGGGSGGGGSQVQLQESGGGSVQAGGSLKLSCTASGYTNRLKCMGWFRQAPGKEREEIATISTGTGNTYYADSVKGRFTFSQDKVKNTVYLQMNTLKPDDTGMYYCAADVRPDGTTCHYNSGGQGTQVTVSS	< 2 fold	no binding	~100 nM	56.9 nM	28700 M⁻¹ s⁻¹	~5 nM	0.00163 s⁻¹	69.7 nM	19.5 nM	10.6 nM	154 nM	6.1 nM	7.46 nM	10.5 nM
